Measurements published in US20060241020.

T1: EFpYGAFA (Sap1 example phosphopeptide, A form of EFpYGAFA/G)
T1 chain: EFYGAFA

T2: AEGELpYGSLYA (Sap1 example phosphopeptide)
T2 chain: AEGELYGSLYA

T3: EFpYGAFG (Sap1 example phosphopeptide, G form of EFpYGAFA/G)
T3 chain: EFYGAFG

B1: PTP-Sap1 wild type (GST fusion of the catalytic domain) (protein)
chain: LKRRNKKKQQKPELRDLVFSSPGDIPAEDFADHVRKNERDSNCGFADEYQQLSLVGHSQSQMVASASENNAKNRYRNVLPYDWSRVPLKPIHEEPGSDYINASFMPGLWSPQEFIATQGPLPQTVGDFWRLVWEQQSHTLVMLTNCMEAGRVKCEHYWPLDSQPCTHGHLRVTLVGEEVMENWTVRELLLLQVEEQKTLSVRQFHYQAWPDHGVPSSPDTLLAFWRMLRQWLDQTMEGGPPIVHCSAGVGRTGTLIALDVLLRQLQSEGLLGPFSFVRKMRESRPLMVQTEAQYVFLHQCILRFLQQSAQAPAEKEVPYEDVENLIYENVAAIQAHKLEV
B2: PTP-β wild type (GST fusion of the catalytic domain) (protein)
chain: RQKVSHGRERPSARLSIRRDRPLSVHLNLGQKGNRKTSCPIKINQFEGHFMKLQADSNYLLSKEYEELKDVGRNQSCDIALLPENRGKNRYNNILPYDATRVKLSNVDDDPCSDYINASYIPGNNFRREYIVTQGPLPGTKDDFWKMVWEQNVHNIVMVTQCVEKGRVKCDHYWPADQDSLYYGDLILQMLSESVLPEWTIREFKICGEEQLDAHRLIRHFHYTVWPDHGVPETTQSLIQFVRTVRDYINRSPGAGPTVVHCSAGVGRTGTFIALDRILQQLDSKDSVDIYGAVHDLRLHRVHMVQTECQYVYLHQCVRDVLRARKLRSEQENPLFPIYENVNPEYHRDPVYSRH

Key:
[1] = target: T1, EFpYGAFA (Sap1 example phosphopeptide, …)
[2] = target: T2, AEGELpYGSLYA (Sap1 example …)
[3] = target: all the clones tested (PTP-Sap1 clones as GST-peptides in the dephosphorylation assay)
[4] = target: T3, EFpYGAFG (Sap1 example phosphopeptide, …)
[5] = target: the GST-peptide (PTP-β clone as GST fusion in the dephosphorylation assay)

Protein	Km [1]	Km [2]	dephosphorylation assay on GST-PEP constructs [3]	Km [4]	dephosphorylation assay on GST-PEP constructs [5]
B1	Km=7.0 uM	Km=7.6 uM	Dephosphorylation assays showed a conserved enzymatic activity for all the clones tested (not shown)	Km=7.0 uM	–
B2	–	–	–	–	the dephosphorylation of the GST-peptide was weak (not shown) as compared to the same experiment on PTP-Sap1
